Earlier results in PMC7191063.

Legend:
[1] = molecular target: trypsin (Bos taurus) (UniProt P00760)
[2] = molecular target: trypsin (Bos taurus) (UniProt P00760); remark: listed apart in the source

Chain of UniProt P00760 (P00760 149-246): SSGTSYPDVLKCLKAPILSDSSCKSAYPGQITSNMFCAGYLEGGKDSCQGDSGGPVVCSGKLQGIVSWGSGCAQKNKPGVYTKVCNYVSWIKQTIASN

| Ki [1] | Kd [2] | Substance |
| --- | --- | --- |
| 0.174 nM | – | BWI-2c (from UniProt P86794) |
| – | < 1 nM | VhTI (from UniProt P85981) |
